Test results published in the supplement of paper PMC11246515.
± gives the standard deviation of the averaged measurements.

Test: total protein half-life in vivo (active degradation + dilution); higher = more stable protein
[1] = wild type E. coli NCM3722, growth: C-lim chemostat, doubling time 12 h
[2] = wild type E. coli NCM3722, growth: P-lim chemostat, doubling time 6 h
[3] = wild type E. coli NCM3722, growth: P-lim chemostat, doubling time 12 h
[4] = wild type E. coli NCM3722, growth: C-lim chemostat, doubling time 3 h
[5] = wild type E. coli NCM3722, growth: C-lim chemostat, doubling time 6 h
[6] = E. coli NCM3722 delta-clpP delta-lon delta-hslV, growth: N-lim chemostat, doubling time 6 h
[7] = E. coli NCM3722 delta-clpP, growth: N-lim chemostat, doubling time 6 h
[8] = E. coli NCM3722 delta-hslV, growth: N-lim chemostat, doubling time 6 h
[9] = E. coli NCM3722 delta-lon, growth: N-lim chemostat, doubling time 6 h
[10] = E. coli NCM3722 delta-smpB, growth: N-lim chemostat, doubling time 6 h
[11] = wild type E. coli NCM3722, growth: N-lim chemostat, doubling time 6 h
[12] = wild type E. coli NCM3722, growth: N-lim chemostat, doubling time 12 h

Sequence | total protein half-life in vivo [1] [h] | total protein half-life in vivo [2] [h] | total protein half-life in vivo [3] [h] | total protein half-life in vivo [4] [h] | total protein half-life in vivo [5] [h] | total protein half-life in vivo [6] [h] | total protein half-life in vivo [7] [h] | total protein half-life in vivo [8] [h] | total protein half-life in vivo [9] [h] | total protein half-life in vivo [10] [h] | total protein half-life in vivo [11] [h] | total protein half-life in vivo [12] [h]
MQATATTLDHEQEYTPINSRNKVLVASLIGTAIEFFDFYIYATAAVIVFPHIFFPQGDPTAATLQSLATFAIAFVARPIGSAVFGHFGDRVGRKATLVASLLTMGISTVVIGLLPGYATIGIFAPLLLALARFGQGLGLGGEWGGAALLATENAPPRKRALYGSFPQLGAPIGFFFANGTFLLLSWLLTDEQFMSWGWRVPFIFSAVLVIIGLYVRVSLHESPVFEKVAKAKKQVKIPLGTLLTKHVRVTVLGTFIMLATYTLFYIMTVYSMTFSTAAAPVGLGLPRNEVLWMLMMAVIGFGVMVPVAGLLADAFGRRKSMVIITTLIILFALFAFNPLLGSGNPILVFAFLLLGLSLMGLTFGPMGALLPELFPTEVRYTGASFSYNVASILGASVAPYIAAWLQTNYGLGAVGLYLAAMAGLTLIALLLTHETRHQSL | 2.58 ± 0.1 | 2.33 ± 0.58 | 2.89 ± 1.6 | – | – | – | – | – | – | – | – | –
MKVTFEQLKAAFNRVLISRGVDSETADACAEMFARTTESGVYSHGVNRFPRFIQQLENGDIIPDAQPKRITSLGAIEQWDAQRSIGNLTAKKMMDRAIELAADHGIGLVALRNANHWMRGGSYGWQAAEKGYIGICWTNSIAVMPPWGAKECRIGTNPLIVAIPSTPITMVDMSMSMFSYGMLEVNRLAGRQLPVDGGFDDEGNLTKEPGVIEKNRRILPMGYWKGSGMSIVLDMIATLLSDGASVAEVTQDNSDEYGISQIFIAIEVDKLIDGPTRDAKLQRIMDYVTSAERADENQAIRLPGHEFTTLLAENRRNGITVDDSVWAKIQAL | 9.43 ± 1.9 | – | – | 2.77 ± 0.16 | 5.23 ± 0.17 | – | – | – | – | – | – | –
MDNAVDRHVFYISDGTAITAEVLGHAVMSQFPVTISSITLPFVENESRARAVKDQIDAIYHQTGVRPLVFYSIVLPEIRAIILQSEGFCQDIVQALVAPLQQEMKLDPTPIAHRTHGLNPNNLNKYDARIAAIDYTLAHDDGISLRNLDQAQVILLGVSRCGKTPTSLYLAMQFGIRAANYPFIADDMDNLVLPASLKPLQHKLFGLTIDPERLAAIREERRENSRYASLRQCRMEVAEVEALYRKNQIPWINSTNYSVEEIATKILDIMGLSRRMY [P0A8A4] | 9.92 ± 1.4 | 5.48 ± 0.51 | 10.7 ± 0.8 | 3.15 ± 0.21 | 5.64 ± 0.63 | 5.48 ± 1.3 | 4.186 ± 0.013 | 4.0273 ± 0.0032 | 4.39 ± 0.15 | 3.98 ± 0.32 | 4.1527 ± 0.0038 | 6.76 ± 0.45
MQTPHILIVEDELVTRNTLKSIFEAEGYDVFEATDGAEMHQILSEYDINLVIMDINLPGKNGLLLARELREQANVALMFLTGRDNEVDKILGLEIGADDYITKPFNPRELTIRARNLLSRTMNLGTVSEERRSVESYKFNGWELDINSRSLIGPDGEQYKLPRSEFRAMLHFCENPGKIQSRAELLKKMTGRELKPHDRTVDVTIRRIRKHFESTPDTPEIIATIHGEGYRFCGDLED [P0A9Q1] | 9.44 ± 1.7 | 5.18 ± 0.058 | 10.3 ± 0.2 | 2.73 ± 0.069 | 5.78 ± 0.19 | 5.53 ± 0.35 | 5.61 ± 1 | 4.95 ± 0.086 | 5.76 ± 0.36 | 4.87 ± 0.05 | 4.76 ± 0.39 | 8.14 ± 0.24
